Assay results: paper PMC8809517, “Cofactor-independent RNA editing by a synthetic S-type PPR protein”
Changes are numbered by the printed parent chain.

T1: GFP-9S library array, motif 4 ND N98A;D124V (synthetic construct, N98A;D124V)
T1 chain: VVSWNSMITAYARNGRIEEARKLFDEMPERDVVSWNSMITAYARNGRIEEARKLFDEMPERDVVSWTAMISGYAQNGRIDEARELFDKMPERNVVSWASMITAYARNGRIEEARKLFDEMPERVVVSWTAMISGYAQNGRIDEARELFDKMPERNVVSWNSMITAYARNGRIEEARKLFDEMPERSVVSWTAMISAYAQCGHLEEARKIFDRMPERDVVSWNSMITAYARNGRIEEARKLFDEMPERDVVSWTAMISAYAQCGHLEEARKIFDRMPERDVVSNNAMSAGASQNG

T2: GFP-9S library array, motif 4 ND N98I;D124H (synthetic construct, N98I;D124H)
T2 chain: T1 chain with A98I, V124H

T3: GFP-9S library array, motif 4 ND N98G;D124K (synthetic construct, N98G;D124K)
T3 chain: T1 chain with A98G, V124K

T4: GFP-9S library array, motif 4 ND N98C;D124V (synthetic construct, N98C;D124V)
T4 chain: T1 chain with A98C

T5: GFP-9S library array, motif 4 ND N98H;D124T (synthetic construct, N98H;D124T)
T5 chain: T1 chain with A98H, V124T


Key:
Experiment in all cases: high-throughput RNA pulldown from lysate on Ni-NTA beads; HRP: 50 mM Tris pH 8, 150 mM NaCl, 1 mM beta-mercaptoethanol, 50 ug/ml BSA, 3 ug/ml yeast RNA, 0.5% heparin; ITC and FP: Tris pH 8, 200 mM KCl, 5% glycerol; MST: 50 mM Tris pH 8, 200 mM NaCl, 1 mM DTT, BSA, heparin, 0.05% Tween 20
Conditions in all cases: tags: N-terminal His-eGFP
[1] = biological target: T1, GFP-9S library array, motif 4 ND …
[2] = biological target: T2, GFP-9S library array, motif 4 ND …
[3] = biological target: T3, GFP-9S library array, motif 4 ND …
[4] = biological target: T4, GFP-9S library array, motif 4 ND …
[5] = biological target: T5, GFP-9S library array, motif 4 ND …

Binder | Kd ([1]; label: 5' Cy5) | Kd ([2]; label: 5' Cy5) | Kd ([3]; label: 5' Cy5) | Kd ([4]; label: 5' Cy5) | Kd ([5]; label: 5' Cy5) | Kd ([1]; label: 5' IRDye 800CW) | Kd ([2]; label: 5' IRDye 800CW) | Kd ([3]; label: 5' IRDye 800CW) | Kd ([4]; label: 5' IRDye 800CW) | Kd ([5]; label: 5' IRDye 800CW)
AUUACACGUGA (ssRNA) [Cy5-rpoA] | 91.2 nM | 147 nM | 103 nM | 130 nM | 50.9 nM | – | – | – | – | –
AUUAGACGUGA (ssRNA) [Cy5-rpoA-G] | 124 nM | 107 nM | 65.4 nM | 124 nM | 75 nM | – | – | – | – | –
AUUAAACGUGA (ssRNA) [IR-rpoA-A] | – | – | – | – | – | 497 nM | 167 nM | 34.3 nM | 98.1 nM | 103 nM
AUUAUACGUGA (ssRNA) [IR-rpoA-U] | – | – | – | – | – | 152 nM | 243 nM | 59.7 nM | 167 nM | 24.9 nM
